In US20040248129A1, “Rhesus monkey, dog and feeret melanin-concentrating hormone type 1 receptor” (priority 2001, published 2004):
Several values for one entry are separate records, joined by “and”; a condition that tells them apart may be missing. Equal values may be shown once. Values belong to the molecule of their own block, whether it stands above or below them. Positions of bridges follow the written chain, without caps; N, C: chain ends. No end group written: not given here.

Assays:
rhesus MCH-1R [1] = molecular target: T1, rhesus MCH-1R (Macaca mulatta, UniProt Q8MJ89); test: Radioligand binding to adherent HEK293T cells transfected with rhesus MCH-1R; set-up: species or system rhesus monkey
T1 construct: expressed in transfected cells; host or cells: HEK293T
Protocol: HEK293T cells were seeded into 24-well culture plates coated with poly-D-Lys at 1×10^5 cells/well and were cultured during over-night. The adherent cells were transfected with pEF1/V5-HisB/rhesus MCH-1R plasmid (see Example 2). Forty-eight hours after transfection, the transfected monolayer cells were rinsed with the assay buffer (Hanks' balanced salt solution containing 20 mM HEPES, 0.2% BSA and 100 μg/ml bacitracin, pH 7.4). The cells were then incubated in 250 μl well of the same buffer with [^125I]-MCH (100 pM, NEN Life Science Products, Boston, Mass.) or [^125I]-[Phe^13,Tyr^19]-MCH (100 pM, NEN Life Science Products) for 30 minutes at 37° C. After the incubation, the cells were washed three times with the ice cold assay buffer and lysed with 500 μl/well of 2 M NaOH. The lysates were transferred into test tubes and the cell- bound radioactivity was measured by a COBLA Quantum γ-counter (Packard Instrument, Meriden, CT). Nonspecific binding was defined in the presence of 1 μM cold MCH or [Phe^13,Tyr^19]-MCH for the corresponding radio ligands.

[2] = test system: mock transfected cells (HEK293T); test: Radioligand binding to mock transfected HEK293T cells; set-up: species or system human
rhesus MCH-1R [3] = molecular target: T1, rhesus MCH-1R; test: Inhibition of [125I]-MCH binding to rhesus MCH-1R expressed on HEK293T cells (filtration); set-up: species or system rhesus monkey; conditions: 100 pM [125I]-MCH, 4×10^5 cells/tube, 30 min, 37° C.
Protocol: (§1) HEK293T cells transfected with pEF1IV5-HisB/MCH1R plasmid were harvested by phosphate-buffered saline containing 2 mM EDTA 48 hours after transfection, and washed once with the assay buffer (Hanks' balanced salt solution containing 20 mM HEPES, 0.2% BSA and 100 μg/ml bacitracin, pH 7.4). The cells (4×10^5 cells/tube) were then incubated in 250 μl/tube of the same buffer with 100 pM […] for 30 minutes at 37° C. After the incubation, bound and free [^25I]-MCH were separated by filtration using a Unifilter GF/B glass filter (Packard Instrument) presoaked with 0.3% polyethylenimine. The remaining radioactivity on the filter was quantitated using a TopCount HTS (Packard instrument) with a Microscint 0 scintillation cocktail (Packard instrument). Specific binding was defined as the difference between total binding and nonspecific binding in the presence of 1 μM cold MCH. Data were analyzed using GraphPad Prism Version 3.0.

rhesus MCH-1R [4] = molecular target: T1, rhesus MCH-1R; test: Intracellular calcium (fura-2) in HEK293T cells transiently expressing rhesus MCH-1R; format: cell-based, rhesus monkey; conditions: read-out: EC50, increase in intracellular calcium levels
From the text: The entire coding sequence of rhesus MCH-1R was cloned into EcoRI-NotI site of pEF1lV5-HisB plasmid vector (Invitrogen, Carlsbad, Calif.). The resultant construct was transfected into HEK293T cells using LipofectAmine PLUS (Life Technologies, Rockville, Md.) according to the manufacture's instructions. Human embryonic kidney cells constitutively expressing SV40 large T antigen (HEK-293T) were maintained in Dulbecco's modified Eagle medium (Life Technologies) supplemented with 10% fetal bovine serum, 100 units/ml penicillin-G and 100 μg/ml streptomycin at 37° C. with 5% CO2 in a humidified atmosphere.
The intracellular calcium ion concentration ([Ca^2+]i) was measured fluorometrically using a Ca^2+-sensitive fluorescent dye, fura-2. HEK293T cells transiently transfected with pEF1N5-HisB plasmid vector harboring rhesus MCH-1R cDNA were harvested by phosphate-buffered saline containing 2 mM EDTA 48 hours after transfection, and washed once with the assay buffer (Hanks' balanced salt solution containing 20 mM HEPES and 0.1% BSA, pH 7.4). […] Data were analyzed using the software GraphPad Prism Version 3.0 (GraphPad Software, Inc., San Diego, Calif., USA).

[5] = molecular target: rhesus monkey MCH-1R (melanin-concentrating hormone type 1 receptor) (rhesus monkey) (UniProt Q8MJ89); test: radioligand binding, 100 pM, HEK293T cells expressing rhesus MCH-1R, replicate 2
[6] = molecular target: rhesus monkey MCH-1R (melanin-concentrating hormone type 1 receptor) (rhesus monkey) (UniProt Q8MJ89); test: radioligand binding, 100 pM, in the presence of 1 uM cold [Phe13,Tyr19]-MCH, HEK293T cells expressing rhesus MCH-1R, replicate 3
[7] = molecular target: rhesus monkey MCH-1R (melanin-concentrating hormone type 1 receptor) (rhesus monkey) (UniProt Q8MJ89); test: radioligand binding, 100 pM, in the presence of 1 uM cold [Phe13,Tyr19]-MCH, HEK293T cells expressing rhesus MCH-1R, replicate 2
[8] = molecular target: rhesus monkey MCH-1R (melanin-concentrating hormone type 1 receptor) (rhesus monkey) (UniProt Q8MJ89); test: radioligand binding, 100 pM, in the presence of 1 uM cold [Phe13,Tyr19]-MCH, HEK293T cells expressing rhesus MCH-1R, replicate 1
[9] = molecular target: rhesus monkey MCH-1R (melanin-concentrating hormone type 1 receptor) (rhesus monkey) (UniProt Q8MJ89); test: radioligand binding, 100 pM, HEK293T cells expressing rhesus MCH-1R, replicate 3
[10] = molecular target: rhesus monkey MCH-1R (melanin-concentrating hormone type 1 receptor) (rhesus monkey) (UniProt Q8MJ89); test: radioligand binding, 100 pM, HEK293T cells expressing rhesus MCH-1R, replicate 1
[11] = molecular target: T2, rhesus monkey MCH-1R (melanin-concentrating hormone type 1 receptor) (rhesus monkey), Q8MJ89; test: cell-based or functional assay
T2 chain: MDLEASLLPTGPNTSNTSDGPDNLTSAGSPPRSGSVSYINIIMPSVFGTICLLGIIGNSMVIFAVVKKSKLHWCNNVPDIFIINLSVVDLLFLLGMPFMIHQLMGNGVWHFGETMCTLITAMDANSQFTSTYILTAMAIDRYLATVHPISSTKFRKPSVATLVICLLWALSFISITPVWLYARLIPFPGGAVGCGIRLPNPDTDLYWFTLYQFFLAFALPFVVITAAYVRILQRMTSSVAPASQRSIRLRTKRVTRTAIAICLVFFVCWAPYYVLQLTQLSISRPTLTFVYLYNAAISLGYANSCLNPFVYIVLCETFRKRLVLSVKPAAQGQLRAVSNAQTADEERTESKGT

[12] = molecular target: T2, rhesus monkey MCH-1R …; test: displacement of 100 pM [125I]-MCH from HEK293T cells expressing rhesus MCH-1R, filtration
[13] = molecular target: T3, rhesus monkey MCH-1R (melanin-concentrating hormone type 1 receptor) (rhesus monkey, UniProt Q8MJ89 1-353); test: cell-based or functional assay
[14] = molecular target: T3, rhesus monkey MCH-1R …; test: displacement of 100 pM [125I]-MCH from HEK293T cells expressing rhesus MCH-1R, filtration
Protocol: as §1, with “(4×10⁵” for “(4×10^5”, “[²⁵I]-MCH” for “[^25I]-MCH”
IC₅₀ values of MCH and [Phe¹³,Tyr¹⁹]-MCH in this experiment were calculated as 0.074 and 0.14 nM, respectively.

[15] = Rhesus MCH-1R transfected HEK293T, 100 pM radioligand, 30 min, 37° C.
[16] = Mock transfected HEK293T, 100 pM radioligand

Molecule: [^125I]-[Phe^13,Tyr^19]-MCH
Binding to HEK293T cells expressing rhesus MCH-1R (in words) (rhesus MCH-1R [1]; 100 pM radioligand): bound to the HEK293T cells expressing rhesus MCH-1R with good windows
[125I]-[Phe13,Tyr19]-MCH binding, Nonspecific binding (rhesus MCH-1R [1]; Rhesus MCH-1R transfected HEK293T, 100 pM radioligand in the presence of 1 μM cold [Phe13,Tyr19]-MCH): 1524.1 cpm and 2023.5 cpm and 1029.6 cpm
[125I]-[Phe13,Tyr19]-MCH binding, Total binding (rhesus MCH-1R [1]; [15]): 5353.0 cpm and 5542.3 cpm and 6345.9 cpm
Specific binding into mock transfected cells (in words) ([2]; 100 pM radioligand): Specific binding was not observed
[125I]-[Phe13,Tyr19]-MCH binding, Total binding [2, 16]: 708.9 cpm and 663.3 cpm and 771.5 cpm
[125I]-[Phe13,Tyr19]-MCH binding, Nonspecific binding ([2]; Mock transfected HEK293T, 100 pM radioligand in the presence of 1 μM cold [Phe13,Tyr19]-MCH): 539.7 cpm and 537.7 cpm and 557.8 cpm

Molecule: CSCC[C@@H]1NC(=O)[C@@H](NC(=O)[C@H](CCCNC(=N)N)NC(=O)[C@H](CC(C)C)NC(=O)[C@H](CCSC)NC(=O)[C@H](CC(=O)O)NC(=O)[C@H](Cc2ccccc2)NC(=O)[C@@H](N)CC(=O)O)CSSC[C@@H](C(=O)N[C@@H](Cc2c[nH]c3ccccc23)C(=O)N[C@@H](CCC(N)=O)C(=O)N[C@H](C(=O)O)C(C)C)NC(=O)[C@@H]2CCCN2C(=O)[C@H](CCCNC(=N)N)NC(=O)[C@H](Cc2ccc(O)cc2)NC(=O)[C@H](C(C)C)NC(=O)[C@H](CCCNC(=N)N)NC(=O)CNC(=O)[C@H](CC(C)C)NC1=O [MCH, Melanin-concentrating hormone]
IC50 (rhesus MCH-1R [3]): 0.074 nM
EC50 (rhesus MCH-1R [4]): 0.3 nM

Molecule: DFDMLRCMLGRVYRPCWQV (peptide, UniProt P20382 147-165, looked up, modifications not checked) [MCH (melanin-concentrating hormone), unlabelled, P20382 147-165]
increase in intracellular calcium levels (fura-2) in HEK293T cells transiently expressing rhesus MCH-1R, EC50 [11]: 0.3 nM
IC50 [12]: 0.074 nM

Now from value to molecule, other results behind:

[125I]-MCH binding, Total binding (rhesus MCH-1R [1]; [15]): 2542.8 cpm and 2893.4 cpm and 2315.5 cpm
Molecule: [^125I]-MCH
Binding to HEK293T cells expressing rhesus MCH-1R (in words) (rhesus MCH-1R [1]; 100 pM radioligand): bound to the HEK293T cells expressing rhesus MCH-1R with good windows
Specific binding into mock transfected cells (in words) ([2]; 100 pM radioligand): Specific binding was not observed
[125I]-MCH binding, Total binding [2, 16]: 209.9 cpm and 215.8 cpm and 239.8 cpm
[125I]-MCH binding, Nonspecific binding ([2]; Mock transfected HEK293T, 100 pM radioligand in the presence of 1 μM cold MCH): 172.0 cpm and 180.9 cpm and 184.1 cpm

Total binding (cpm) [5]: 5540 cpm
Nonspecific binding (cpm) [6]: 1030 cpm
Nonspecific binding (cpm) [7]: 2020 cpm
Nonspecific binding (cpm) [8]: 1520 cpm
Total binding (cpm) [9]: 6350 cpm
Total binding (cpm) [10]: 5350 cpm
Molecule: [^125I]-[Phe^13,Tyr^19]-MCH (from UniProt P20382 147-165) (peptide)

increase in intracellular calcium levels (fura-2) in HEK293T cells transiently expressing rhesus MCH-1R, EC50 [13]: 1.1 nM
IC50 [14]: 0.14 nM
B1: [Phe^13,Tyr^19]-MCH, unlabelled (peptide)
peptide: DFDMLRCMLGRVFRPCWQY
modifications: disulfide 7-16 (inferred)
notes: Only the new residues (Phe13, Tyr19) are printed; also called cold [Phe^13,Tyr^19]-MCH
